# Test results: the supplement of paper PMC7877785
# ± gives the uncertainty stated by the source.
# Assay: self-splicing fitness, log relative to wild type (ln ratio); higher = more splicing; Tetrahymena group I intron in knt gene, E. coli kanamycin selection, DiMSum; sequences stand for … in CUCUCU…GGAGGGAAAAGUUAUCAGGCAUGCACCUGGUAGCUAGUCUUUAAACCAAUAGAUUGCAUCGGUUUAAAAGGCAAGACCGUCAAAUUGCGGGAAAGGGGUCAACAGCCGUUCAGUACCAAGUCUCAGGGGAAACUUUGAGAUGGCCUUGCAAAGGGUAUGGUAAUAAGCUGACGGACAUGGUCCUAACCACGCAGCCAAGUCCUAAGUCAACAGAUCUUCUGUUGAUAUGGAUGCAGUUCACAGACUAAAUGUCGGUCGGGGAAGAUGUAUUCUUCUCAUAAGAUAUAGUCGGACCUCUCCUUAAUGGGAGCUAGCGGAUGAAGUGAUGCAACACUGGAGCCGCUGGGAACUAAUUUGUAUGCGAAAGUAUAUUGAUUAGUUUUGGAGUACUCGUGGUCG
# Method in brief: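 Library with all eight P1ex-region intron nucleotides randomised, intron inside the knt kanamycin-resistance gene on pET-22b(+), in E. coli BL21(DE3). Cells grew overnight at 37°C or 30°C on LB agar with or without 25 μg/mL kanamycin (plus 100 μg/mL carbenicillin, 50 μM IPTG, 0.2% rhamnose), in six replicate transformations. Pooled colonies were amplicon-sequenced on Illumina HiSeq 2500. DiMSum fitness is the error-weighted combination of wild-type-normalised replicate fold changes, kanamycin versus none.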
Sequence,self-splicing fitness (ln) (30 °C),self-splicing fitness (ln) (37 °C)
AGGAAGCAAUAUUACGAUAG,-3.02 ± 0.28,-1.55 ± 0.38
CGAAAGCAAUAUUACGUGGC,-0.949 ± 0.12,-3.21 ± 0.32
GGUAAGCAAUAUUACGGGUA,-1.98 ± 0.22,-1.71 ± 0.18
UGAUAGCAAUAUUACGCAAC,-3.43 ± 0.44,–
UGACAGCAAUAUUACGUGAC,-2.64 ± 0.12,-1.37 ± 0.19
CAUCAGCAAUAUUACGCGUU,-2.17 ± 0.1,-1.54 ± 0.13
GUUUAGCAAUAUUACGGGUA,-3 ± 0.24,-1.61 ± 0.17
CUCAAGCAAUAUUACGUGAA,-0.683 ± 0.077,-0.629 ± 0.12
GGUCAGCAAUAUUACGCCGC,-2.96 ± 0.26,-2.62 ± 0.36
GUCCAGCAAUAUUACGGAAA,-0.248 ± 0.095,0.62 ± 0.12
GUUGAGCAAUAUUACGCAAA,-2.73 ± 0.35,-0.984 ± 0.14
GGGUAGCAAUAUUACGCUCU,-3.13 ± 0.34,–
CCCUAGCAAUAUUACGGCGA,-2.43 ± 0.13,-2.19 ± 0.17
GAUUAGCAAUAUUACGCGUA,-1.01 ± 0.1,-0.855 ± 0.091
CCAGAGCAAUAUUACGAAUC,-3.76 ± 0.26,-2.74 ± 0.27
GCUUAGCAAUAUUACGAAUA,-2.05 ± 0.25,-0.645 ± 0.18
GGGGAGCAAUAUUACGUAAG,-2.56 ± 0.21,-1.01 ± 0.24
GUCAAGCAAUAUUACGCCAA,–,-1.52 ± 0.28
AGGCAGCAAUAUUACGUAGG,-2.04 ± 0.083,-1.64 ± 0.12
AUACAGCAAUAUUACGUACC,-0.828 ± 0.11,-0.283 ± 0.15
GUUGAGCAAUAUUACGGCGU,-1.02 ± 0.13,-0.302 ± 0.2
UAAAAGCAAUAUUACGCCCG,-0.0582 ± 0.21,0.323 ± 0.23
UAUGAGCAAUAUUACGGAUA,-2 ± 0.23,0.104 ± 0.21
UAAUAGCAAUAUUACGGGCG,-1.45 ± 0.1,-0.567 ± 0.13

Sequence,self-splicing fitness (ln) (30 °C),self-splicing fitness (ln) (37 °C)
UCCCAGCAAUAUUACGUUCA,-0.991 ± 0.093,-0.824 ± 0.1
UAUGAGCAAUAUUACGCUCG,-2.09 ± 0.21,-2.2 ± 0.35
AGCAAGCAAUAUUACGCCAC,-3.17 ± 0.28,-3.33 ± 0.28
AUUGAGCAAUAUUACGAGUG,-2.69 ± 0.28,-2.76 ± 0.38
UGAAAGCAAUAUUACGUCCA,0.114 ± 0.088,-0.497 ± 0.11
ACUUAGCAAUAUUACGUUCA,-0.344 ± 0.19,-0.694 ± 0.2
AUGGAGCAAUAUUACGUGUU,-3.69 ± 0.15,-3.73 ± 0.24
UCAAAGCAAUAUUACGCUUG,-2.27 ± 0.14,-2.58 ± 0.26
CCGAAGCAAUAUUACGGGGU,-4.25 ± 0.22,-2.6 ± 0.21
ACCCAGCAAUAUUACGACUG,-2.87 ± 0.23,-2.72 ± 0.41
AACAAGCAAUAUUACGCUAG,-3.74 ± 0.19,-1.98 ± 0.15
GAAGAGCAAUAUUACGGCGC,-1.12 ± 0.16,-0.427 ± 0.16
CAUUAGCAAUAUUACGCGCA,-1.39 ± 0.16,-1.52 ± 0.17
UUACAGCAAUAUUACGAGUU,-4.21 ± 0.21,-2.18 ± 0.14
CGGGAGCAAUAUUACGCACU,-2.4 ± 0.24,-2.65 ± 0.25
CCGUAGCAAUAUUACGUCAG,-1.26 ± 0.077,-1.55 ± 0.089
AAGAAGCAAUAUUACGGGAU,-3.22 ± 0.22,-1.77 ± 0.18
AAGGAGCAAUAUUACGGAGU,-3.24 ± 0.22,-1.33 ± 0.17
ACUAAGCAAUAUUACGGUCA,-1.57 ± 0.077,-1.35 ± 0.094
UGCCAGCAAUAUUACGGCAU,-2.48 ± 0.15,-3.23 ± 0.26
GCUCAGCAAUAUUACGGCCC,-1.13 ± 0.078,-0.029 ± 0.1
UCAUAGCAAUAUUACGAUUA,-0.984 ± 0.17,-0.81 ± 0.25
CCCGAGCAAUAUUACGAUCG,-3.58 ± 0.32,-2.71 ± 0.41
UCAUAGCAAUAUUACGUCCG,0.46 ± 0.24,-1.67 ± 0.29
